Measured values: patent US20260234246A1 (CAEDO ONCOLOGY, published 2026)

Experiments:
[1] = target: T1, human CD47 on the surface of cells (human cancer cell lines and human red blood cells) (human, UniProt Q08722 19-323); test: flow cytometry, FITC-mCO-1 on H4 cells
T1 construct: Native CD47 of human cell lines (Jurkat, Reh, CCRF-CEM and others) and of RBCs from healthy donors; also called cell-surface CD47
Protocol: (§1) PBS-washed cancer cell lines or RBCs were pelleted and washed with washing buffer (3% (w/v) BSA, 1% (w/v) sodium azide in PBS) and incubated with Human BD Fc Block for 10 minutes before being plated into a round-bottom 96 well plate (2.5×10⁵ cells per well). Antibodies were conjugated with FITC using the FITC conjugation kit from Abcam. […] All samples were prepared in duplicates. Cells were washed three times and resuspended in cold washing buffer. Cells were kept on ice until analyses by flow cytometry. Excitation wavelength FITC: 488 nm, detection: 530/30 nm.

[2] = target: T1, human CD47 on the surface of cells …; test: flow cytometry, FITC-mCO-1 on Reh cells
[3] = target: T1, human CD47 on the surface of cells …; test: flow cytometry, FITC-mCO-1 on T24 cells
Protocol: as §1

[4] = target: T1, human CD47 on the surface of cells …; test: flow cytometry, FITC-mCO-1 on Raji cells
[5] = target: T1, human CD47 on the surface of cells …; test: flow cytometry, FITC-mCO-1 on A-172 cells
[6] = target: T1, human CD47 on the surface of cells …; test: flow cytometry, FITC-mCO-1 on HL-60 cells
[7] = target: T1, human CD47 on the surface of cells …; test: flow cytometry, FITC-mCO-1 on K-562 cells
Protocol: as §1

[8] = target: T1, human CD47 on the surface of cells …; test: flow cytometry, FITC-mCO-1 on SW780 cells
[9] = target: T1, human CD47 on the surface of cells …; test: flow cytometry, FITC-mCO-1 on MOLT-4 cells
[10] = target: T1, human CD47 on the surface of cells …; test: flow cytometry, FITC-mCO-1 on SUP-T1 cells
Protocol: as §1

[11] = target: T1, human CD47 on the surface of cells …; test: flow cytometry, FITC-mCO-1 on SW1088 cells
Protocol: as §1

[12] = target: T1, human CD47 on the surface of cells …; test: flow cytometry, FITC-mCO-1 on TCCSUP cells
Protocol: as §1

[13] = target: T1, human CD47 on the surface of cells …; test: flow cytometry, FITC-mCO-1 on HT-1197 cells
Protocol: as §1

[14] = target: T1, human CD47 on the surface of cells …; test: flow cytometry, FITC-mCO-1 on HT-1376 cells
[15] = target: T1, human CD47 on the surface of cells …; test: flow cytometry, FITC-mCO-1 on U-87-MG cells
[16] = target: T1, human CD47 on the surface of cells …; test: flow cytometry, FITC-mCO-1 on UM-UC-3 cells
[17] = target: T1, human CD47 on the surface of cells …; test: flow cytometry, FITC-mCO-1 on CCRF-CEM cells
[18] = target: T1, human CD47 on the surface of cells …; test: flow cytometry, FITC-mCO-1 on U-118-MG cells
Protocol: as §1

[19] = target: T1, human CD47 on the surface of cells …; test: flow cytometry, FITC-mCO-1 on human RBCs (FIG. 1E)
Protocol: as §1

[20] = target: T1, human CD47 on the surface of cells …; test: flow cytometry on human RBCs (same experiment as paragraph 345, printed more exactly)

T1 sequence (Q08722 19-323 limits assumed): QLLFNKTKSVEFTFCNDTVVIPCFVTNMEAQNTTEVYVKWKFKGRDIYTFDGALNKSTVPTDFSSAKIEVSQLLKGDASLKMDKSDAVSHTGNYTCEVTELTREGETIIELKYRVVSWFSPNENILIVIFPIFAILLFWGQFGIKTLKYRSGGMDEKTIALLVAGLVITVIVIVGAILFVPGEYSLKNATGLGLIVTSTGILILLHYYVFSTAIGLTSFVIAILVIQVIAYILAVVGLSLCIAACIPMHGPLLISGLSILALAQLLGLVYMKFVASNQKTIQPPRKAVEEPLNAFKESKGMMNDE

B1: murine CO-1 (mCO-1) antibody (antibody, V domains shown)
VH: QIQLVQSGPELKKPGETVKISCKASGYTFTNFGMHWVKQAPGKGLKWMGWINTYTGEPTYTDDFKGRFAFSLETSASTAYLQINSLKNEDTATFFCTRGDYRYGDSWGQGTTLTVSS
VL: DVVMTQTPLSLPVSLGDQASISCRSSQSLVHSNGKTYLHWYLQKPGQSPKLLIYRVSNRFSGVPDRFSGSGSGTDFTLKISRIEAEDLGVYFCSQSTHVPFTFGSGTKLEIK
notes: Full length mouse IgG1 kappa antibody from a hybridoma
- EC50 [1]: 2.46 µg/mL
- EC50 [2]: 2.8 µg/mL
- EC50 [3]: 0.9 µg/mL
- EC50 [4]: 0.0267 µg/mL
- EC50 [5]: 3.5 µg/mL
- EC50 [6]: 0.593 µg/mL
- EC50 [7]: 0.354 µg/mL
- EC50 [8]: 0.334 µg/mL
- EC50 [9]: 0.0106 µg/mL
- EC50 [10]: 0.00425 µg/mL
- EC50 [11]: 1.17 µg/mL
- EC50 [12]: 2.4 µg/mL
- EC50 [13]: 0.786 µg/mL
- EC50 [14]: 0.286 µg/mL
- EC50 [15]: 2.99 µg/mL
- EC50 [16]: 0.0553 µg/mL
- EC50 [17]: 0.00109 µg/mL
- EC50 [18]: 0.404 µg/mL
- EC50 [19]: 0.04 µg/mL
- EC50 [20]: 0.044 µg/mL
